Reference: publication PMC13079917

Target: Monoclonal antibody L9 (human IgG)
Experiment: KinExA (kinetic exclusion assay); equilibrium in solution; antigen serially diluted into a constant concentration of antibody (human IgG as constant binding partner); equilibrated 24 h; room temperature (about 25 °C); 1x HBS-EP+ pH 7.4 with BSA at 1 mg/mL; antigen cross-linked to beads as capturing reagent; n-curve analysis

Chain of Monoclonal antibody L9 (human IgG) (heavy, as listed by the source, chain 1 of 2): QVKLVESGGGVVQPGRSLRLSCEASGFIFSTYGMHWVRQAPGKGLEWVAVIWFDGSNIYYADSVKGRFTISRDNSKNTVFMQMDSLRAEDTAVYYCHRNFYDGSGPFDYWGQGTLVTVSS
Chain of Monoclonal antibody L9 (human IgG) (light, as listed by the source, chain 2 of 2): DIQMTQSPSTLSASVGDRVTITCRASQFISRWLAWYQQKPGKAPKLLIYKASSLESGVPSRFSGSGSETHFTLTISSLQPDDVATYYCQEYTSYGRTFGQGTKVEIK

Row | Binder | Kd
1 | NANPNVDPNANPNVDPNANPNVDP (modifications not checked) [triple-NPNV peptide] | 0.059 nM
2 | NANPNVDPNANPNVDP (modifications not checked) [double-NPNV peptide] | 4.56 nM
